Measured values as given in publication PMC4070925.

B1: Truncate II (structured_DNA)
DNA: AGATGCCTGTCGAGCATGCTGGTTGGTGTGGTTGGTTGGTTGGCGTTCAAAGCAGTCTTGGGCTAAGTCCGTGGTAGGGCAGGTTGGGGTGACT
B2: Truncate I (structured_DNA)
DNA: GGTTGGTGTGGTTGGTTGGTTGGCGTTCAAAGCAGTCTTGGGCTAAGTCCGTGGTAGGGCAGGTTGGGGTGACTGTAGCTAAACTGCTTTGTCGACGGG
B3: Bivalent Linker 2 (structured_DNA)
DNA: AGATGCCTGTCGAGCATGCTGGTTGGTGTGGTTGGTTGGTTGGCGTTCAAAGCAGTCTTGGGCTAAGTCCGTGGTAGGGCAGGTTGGGGTGACTGTAGCTAAACTGCTTTGTCGACGGG
B4: Bivalent Linker 1 (structured_DNA)
DNA: AGATGCCTGTCGAGCATGCTGGTTGGTGTGGTTGGATTGGGGGGCAGAATGCCAGTTTAGCGTACAGTCCGTGGTAGGGCAGGTTGGGGTGACTGTAGCTAAACTGCTTTGTCGACGGG
B5: Bivalent Linker 4 (structured_DNA)
DNA: AGATGCCTGTCGAGCATGCTGGTTGGTGTGGTTGGGTTGTGGGGAATAAAAGCAGTTTAGCGTACAGTCCGTGGTAGGGCAGGTTGGGGTGACTGTAGCTAAACTGCTTTGTCGACGGG
B6: Bivalent Linker 5 (structured_DNA)
DNA: AGATGCCTGTCGAGCATGCTGGTTGGTGTGGTTGGAAGTAGGTGGTTCAAAGCAGTGAAGGGTACAGTCCGTGGTAGGGCAGGTTGGGGTGACTGTAGCTAAACTGCTTTGTCGACGGG
B7: Bivalent Linker 3 (structured_DNA)
DNA: AGATGCCTGTCGAGCATGCTGGTTGGTGTGGTTGGGTAGGGGCCCAGCATGACAGTTTTTGCCAAAGTCCGTGGTAGGGCAGGTTGGGGTGACTGTAGCTAAACTGCTTTGTCGACGGG
B8: Bivalent Linker 6 (structured_DNA)
DNA: AGATGCCTGTCGAGCATGCTGGTTGGTGTGGTTGGCGGGGGCCCTCTATAGTTGCGTTCTGGATGAGTCCGTGGTAGGGCAGGTTGGGGTGACTGTAGCTAAACTGCTTTGTCGACGGG
B9: Truncate III (structured_DNA)
DNA: GGTTGGTGTGGTTGGTTGGTTGGCGTTCAAAGCAGTCTTGGGCTAAGTCCGTGGTAGGGCAGGTTGGGGTGACT

Molecular target: thrombin (UniProt P00734;P00734 315-363;364-622)
Test: plate binding assay (streptavidin-peroxidase); Thrombin-coated plate; 5'-biotin aptamer in HEPES buffer (full composition not in material) 1 h; washes 40 mM HEPES pH 7.5, 0.05% Tween-20; block 1 mg/ml BSA +

Binder | apparent K (half saturation) [nM]
B1 | 0.5
B2 | 1
B3 | 0.2
AGTCCGTGGTAGGGCAGGTTGGGGTGACT (structured_DNA) [Apt-29] | 0.7
B4 | 1.4
B5 | 0.4
B6 | 1
B7 | 0.4
B8 | ~20
B9 | 0.5
